Source: US20130243795A1 (Janssen / Centocor, published 2013)
Positions count from the first letter of the chain named. Blank lines part the entries; values can stand above or below the binder they belong to.

How the values were obtained:
[1] = target: T1, Human CD27 ECD, monomeric soluble (construct limits not stated) (human, UniProt P26842 20-191); assay: Biacore SPR, purified mAb
T1 construct: extracellular domain; target of the Biacore assays; also called monomeric soluble CD27; CD27-His

[2] = target: T1, Human CD27 ECD, monomeric soluble …; assay: Biacore SPR, purified mAb; reference M160
[3] = target: T2, Human CD27 ECD truncated (ECD 1-121, cleavage site, His6) (human); assay: ProteOn SPR, purified mAb, CD27-His
T2 construct: also called human CD27 ECD with His Tag; CD27-His
T2 chain: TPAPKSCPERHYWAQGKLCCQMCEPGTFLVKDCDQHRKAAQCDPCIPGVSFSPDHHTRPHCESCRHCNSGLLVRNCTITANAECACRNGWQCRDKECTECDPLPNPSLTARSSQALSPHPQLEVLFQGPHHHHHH

[4] = target: T1, Human CD27 ECD, monomeric soluble …; assay: Biacore SPR, purified mAb; reference M166
[5] = target: T1, Human CD27 ECD, monomeric soluble …; assay: Biacore SPR, purified mAb; reference M158

T1 sequence (P26842 20-191): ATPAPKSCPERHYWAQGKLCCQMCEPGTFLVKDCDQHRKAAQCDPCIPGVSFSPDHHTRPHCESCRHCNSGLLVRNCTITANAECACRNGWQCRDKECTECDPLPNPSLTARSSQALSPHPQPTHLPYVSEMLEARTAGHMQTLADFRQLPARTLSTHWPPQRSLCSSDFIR

- Kd [1]: 0.069 nM
- koff [1]: 0.000102 s⁻¹
- kon [1]: 1.48e+06 M⁻¹ s⁻¹
- fold improvement in KD against the corresponding VH1-46 variant [2]: 2 fold
- Kd [3]: 0.059 nM
- koff [3]: 0.000139 s⁻¹
- kon [3]: 2.36e+06 M⁻¹ s⁻¹
B1: M169 (antibody, V domains shown)
VH: EVQLVQSGAEVKKPGESLKISCKGSGYAFSSSWMNWVRQMPGKGLEWMGRIYSGDGDTNYNGKFKGQVTISADKSISTAYLQWSSLKASDTAMYYCARSDYYGDYGFAYWGQGTLVTVSS
VL: DIQMTQSPSSLSASVGDRVTITCKASQSVDYAGDSFMNWYQQKPGKAPKLLIYAASNLESGVPSRFSGSGSGTDFTLTISSLQPEDFATYYCQQSNEDPYTFGQGTKVEIK
notes: isotype not restated (path 2 mAbs were IgG4 Ser to Pro, Ala/Ala / kappa); also called H221, L219; CM169

- Kd [1]: 0.07 nM
- koff [1]: 0.000116 s⁻¹
- kon [1]: 1.66e+06 M⁻¹ s⁻¹
- fold improvement in KD against the corresponding VH1-46 variant [4]: 2 fold
B2: M170 (antibody, V domains shown)
VH: B1 VH
VL: B1 VL with G33H, D34E
notes: isotype not restated (path 2); also called H221, L217

- Kd [1]: 0.234 nM
- koff [1]: 0.000358 s⁻¹
- kon [1]: 1.53e+06 M⁻¹ s⁻¹
- fold improvement in KD against the corresponding VH1-46 variant [5]: 2 fold
B3: M171 (antibody, V domains shown)
VH: B1 VH
VL: B1 VL with F36Y
notes: isotype not restated (path 2); also called H221, L220
